Experimental findings from patent publication US20250282887A1 (Amgen, published 2025) are described below.

Positions count from the first letter of the chain named.

Assay [1] deals with T1, Human MAGEB2 (Melanoma-associated antigen B2) (human, UniProt O15479 1-319).
T1 construct: Intracellular antigen detected by IHC in FFPE material: CHO cells transfected with human MAGEB2 (mCherry vector with Myc/DDK tags, or ORF without tags)
T1 sequence: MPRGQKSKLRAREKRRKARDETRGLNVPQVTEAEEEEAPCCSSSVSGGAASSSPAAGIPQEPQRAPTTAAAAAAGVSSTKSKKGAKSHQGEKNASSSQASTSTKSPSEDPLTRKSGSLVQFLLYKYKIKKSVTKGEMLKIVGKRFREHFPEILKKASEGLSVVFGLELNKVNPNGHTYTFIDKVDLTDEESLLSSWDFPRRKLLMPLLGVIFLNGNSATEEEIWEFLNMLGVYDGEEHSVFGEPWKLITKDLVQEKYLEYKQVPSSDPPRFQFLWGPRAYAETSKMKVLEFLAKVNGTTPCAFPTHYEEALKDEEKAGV
As to the kind of experiment: IHC on FFPE NCI-H82 cells (endogenous MAGEB2). How it is done:
(§1) FFPE samples were sectioned at 4 μm and mounted on positive charged glass slides. After mounting, paraffin sections were air-dried at room temperature. FFPE TMA samples were received as freshly sectioned and mounted on glass slides. The fully automated IHC assay was performed on a Discovery Ultra Stainer (Ventana Medical Systems, Tucson, AZ) using Ventana Anti-Rabbit HQ (cat #760-4815), Ventana Anti-HQ HRP (cat #760-4820), and Ventana Antibody Diluent with Casein (cat #760-219) (Ventana Medical Systems, Tucson, AZ). The slides were baked on the Discovery Ultra Stainer at 60° C. for 8 minutes, de-paraffinized with Ventana Discovery wash (cat #950-510) for 3 cycles (8 minutes each) at 69° C., and underwent cell conditioning (target retrieval) at 95° C. for 16 minutes (for cell arrays) or 32 minutes (tissues or TMAs) in CC1 buffer (cat #950-500). Following this, slides were incubated with Background Sniper (cat #BS966M, Biocare Medical, Pacheco, CA) in a Ventana Option Prep kit (cat #771-751) for 28 minutes, incubated with CM inhibitor (a part of the Ventana DAB kit cat #760-159) for 12 minutes, and incubated for 1 h at RT with MAGE-B2 antibody diluted with Ventana diluent with Casein in a Ventana Prep kit (cat #770-001) (working concentration at 0.1 μg/ml for cell pellet, or 1-5 ug/ml for tissues) or with a matched concentration of isotype control Rabbit IgG1 antibody. Following this, slides were incubated with the Ventana Anti-Rabbit HQ (cat #760-4815) for 28 minutes at RT, Ventana Anti-HQ HRP (cat #760-4820) for 28 minutes at RT, and signals detected with Ventana DAB chromogen kit (cat #760-159) for 5 minutes at RT. Slides were counterstained with Ventana Hematoxylin II (cat #5266726001) for 8 minutes and Ventana Bluing reagent (cat #526676900) for 4 minutes. Slides were coverslipped and digitized using an Aperio AT2 scanner (Leica Biosystems Inc, Buffalo Grove, IL).

The target in the next assay is T2, human MAGEB16 (human, UniProt A2A368 1-324).
T2 construct: whole, on cells; FFPE cell pellets
T2 sequence (looked up): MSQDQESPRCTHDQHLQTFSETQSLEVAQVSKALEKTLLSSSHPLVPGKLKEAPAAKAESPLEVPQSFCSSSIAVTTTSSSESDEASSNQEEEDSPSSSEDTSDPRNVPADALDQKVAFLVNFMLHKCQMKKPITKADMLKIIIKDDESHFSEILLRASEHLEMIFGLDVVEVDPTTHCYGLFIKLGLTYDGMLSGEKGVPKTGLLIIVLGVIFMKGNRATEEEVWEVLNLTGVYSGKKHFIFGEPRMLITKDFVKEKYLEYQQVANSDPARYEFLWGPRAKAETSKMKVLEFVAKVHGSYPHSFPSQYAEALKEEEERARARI
As to the kind of experiment: IHC, FFPE CHO cells transfected with human MAGEB16.
Description: Negative control cells included parental Chinese hamster ovary (CHO) cells, CHO cells stably transfected with mCherry Vector Control (minus Myc/DDK tags), CHO cells stably transfected with mCherry-human DCAF4L2 (plus Myc/DDK tags). The cross-reactivity control cells included CHO cells transfected with mCherry Vector Control (plus Myc/DDK tags) with one of the human MAGE-B or MAGE-A family members (MAGEA1, MAGEA2, MAGEA3, MAGEA4, MAGEA5, MAGEA6, MAGEA8, MAGEA9, MAGEA11, MAGEA12, MAGEB1, MAGEB3, MAGEB4, MAGEB5, MAGEB6, MAGEB10, MAGEB16, MAGEB17, MAGEB18). Positive control cell lines included CHO cells transfected with mCherry Vector (plus Myc/DDK tags) with human MAGE-B2 or CHO cells transfected with mCherry Vector (open reading frame (ORF); minus Myc/DDK tags) with human MAGEB2, and thirteen human cancer cell lines with known endogenous RNA expression level of MAGEB2 (U266B1, T98G, KMM-1, U20S, CFPAC-1, SCaBER, UACC-257, CFPAC-1, VMRC-LCD, NCI-H1703, UM-UC-3, NCI-H1395, NCIH82).
as §1, with “antibody.” for “antibody. Following this, slides were incubated with the Ventana Anti-Rabbit HQ (cat #760-4815) for 28 minutes at RT, Ventana Anti-HQ HRP (cat #760-4820) for 28 minutes at RT, and signals detected with Ventana DAB chromogen kit (cat #760-159) for 5 minutes at RT. Slides were counterstained with Ventana Hematoxylin II (cat #5266726001) for 8 minutes and Ventana Bluing reagent (cat #526676900) for 4 minutes. Slides were coverslipped and digitized using an Aperio AT2 scanner (Leica Biosystems Inc, Buffalo Grove, IL).”

B1: 1I14 (antibody, V domains shown)
VH: QSVEESGGRLVTPGTPLTLTCTISGFSLSSYAMSWVRQAPGKGLEWIGSIGGGGSAVYASWAKGRFTISKTSTTVDLRITSPTTEDTAMYFCGRGFYSIDLWGPGTLVTVSS
VL: DVVMTQTPASVEATVGGTVTIKCQSSQSVYDNNALAWYQQNAGQRPRLLIYGASTLASGVPSRFSASGSGTEFTLTISDLECADAATYYCQCTYYVSSYQNDFGGGTEVVVKG
notes: also called MAGE-B2 (1i14)
As to B1, in assay [1], the “IHC % Frequency” value came to 0% and the “IHC Intensity” value was 0. Further, the binding result in the assay with human MAGEB16 was “no binding (tested: 0.1 µg/ml)”.

B2: 1C3 (antibody, V domains shown)
VH: QSLEESGGGLVQPEGSLTLTCTAFGVTLTNYYICWVRQAPGKGLEWVGCIDNANGRTYYASWAKGRFTISKTSSTTGTLQMTSLTAADTATYFCARSLATPLWGPGTLVTVSS
VL: DIVMTQTPSSVEAAVGGTVTIKCQASQNISSYLAWYQQKPGQPPKLLIYRASTLASGVPSRFKGSGSGTQFTLTISDLECADAATYYCQSYDDSRSSNFFYAFGGGTEVVVKG
notes: also called MAGE-B2 (IC3); anti-MAGEB2 antibody 1C3
For B2, in assay [1], the “IHC % Frequency” value came out at 0% and the “IHC Intensity” value worked out at 1. Further, the binding result with human MAGEB16 is reported as “no binding (tested: 0.1 µg/ml)”.

B3: 4G17 (antibody, IgG1, V domains shown)
VH: B2 VH with F24S, T29S, V47I, A53V
VL: DIVMTQTPASVEAAVGGTVTIKCQASQNIDSYLAWYQQKPGQPPKLLIYRASTLASGVPSRFKGSGSGTEFTLTISDLECADAATYYCQSYDDSRSSSFFYGFGGGTEVVVK
notes: Rabbit monoclonal IgG1; Tested as supernatant and as small batch purified antibody; also called MAGE-B2 (4G17); anti-MAGEB2 antibody 4G17
Regarding B3, in assay [1], the “IHC % Frequency” value amounted to 0% and the “IHC Intensity” value was 0. Moreover, in the assay with human MAGEB16, the binding result is reported as “no binding (tested: 0.1 µg/ml)”.

B4: 1J15 (antibody, IgG1, V domains shown)
VH: B2 VH with V26F, T29N, V47I, G48A, G77V, A99S
VL: B3 VL with N28S, D30S, A34S, K63R, E70Q, R95S, S96D, S97N, S98N, K112R
notes: Rabbit monoclonal IgG1; Tested as supernatant and as small batch purified antibody; also called MAGE-B2 (IJ15); anti-MAGEB2 antibody 1J15
Consider B4, for which, in assay [1], the “IHC % Frequency” value came out at 0% and the “IHC Intensity” value is 0. In the assay with human MAGEB16, the binding result is reported as “no binding (tested: 0.1 µg/ml)”.
